Source: patent publication US20250332264A1, “GhR-BINDING PEPTIDE AND COMPOSITION COMPRISING SAME” (priority 2021, published 2025)
Starred links: 1 amine or outer side, 2 acyl side, 3 side chain; linkers in the order of their positions; H or OH if unused. Positions of bridges follow the written chain, without caps; N, C: chain ends. Non-standard residues stand in square brackets, D forms with d. Groups on a side chain read outwards from the residue. No end group written: not given here. *: point of attachment. A4pipaa = 4-amino-1-(carboxymethyl)piperidine-4-carboxylic acid, O=C(C1(N[*:1])CCN(CC(=O)[*:3])CC1)[*:2]; BiPh4pCO = 4-([1,1′-biphenyl]-4-yl)butanoic acid, O=C(CCCc1ccc(-c2ccccc2)cc1)*; Biph4pCO = 4-([1,1′-biphenyl]-4-yl)butanoic acid, O=C(CCCc1ccc(-c2ccccc2)cc1)*; X1 = 4‑(carboxymethyl)piperazine‑1‑carbonyl, O=C(O)CN1CCN(C(=O)*)CC1; Trp(1-CH2CO) = O=C([C@H](Cc1cn(CC(=O)[*:3])c2ccccc12)N[*:1])[*:2]; Trp(5-OMe) = COc1ccc2[nH]cc(C[C@H](N)C(=O)O)c2c1; Butanoyl(4-(4-I-phenyl)) = O=C(CCCc1ccc(I)cc1)*; Trp(5-OH) = N[C@@H](Cc1c[nH]c2ccc(O)cc12)C(=O)O; Phe(4-COOH) = N[C@@H](Cc1ccc(C(=O)O)cc1)C(=O)O; Trp(7-aza) = N[C@@H](Cc1c[nH]c2ncccc12)C(=O)O; Butanoyl(4-(4-MePh)) = Cc1ccc(CCCC(=O)*)cc1; C17 diacid = O=C(O)CCCCCCCCCCCCCCCC(=O)*; C16 diacid = O=C(O)CCCCCCCCCCCCCCC(=O)*; C15 diacid = O=C(O)CCCCCCCCCCCCCC(=O)*; C14 diacid = O=C(O)CCCCCCCCCCCCC(=O)*; Hexanoyl(6-Ph) = O=C(CCCCCc1ccccc1)*; Butanoyl(4-Ph) = O=C(CCCc1ccccc1)*; 4Pal = N[C@@H](Cc1ccncc1)C(=O)O; NMeK = CN[C@@H](CCCCN)C(=O)O; W5H = not defined here; AEEA = NCCOCCOCC(=O)O; Aib = CC(C)(N)C(=O)O

B1: GhR_PD_203 (peptide)
peptide: {CH2CO}-YKVVSN[Trp(7-aza)][Phe(4-COOH)]K[Trp(5-OH)][Aib]VC-NH2
modifications: thioether N-13; not fully specified (residue 2); also: albumin binder E-4IPhpCO, attachment site not given here
B2: GhR_PD_269 (peptide)
peptide: {CH2CO}-[Phe(4-COOH)]KVVSN[Trp(1-CH2CO)][Phe(4-COOH)]K[Trp(5-OH)][Aib]VCK([Glu-Glu-C15 diacid])-NH2
modifications: thioether N-13; lactam 2-7; not fully specified (residue 2)
B3: GhR_PD_247 (peptide)
peptide: {CH2CO}-[Phe(4-COOH)]KVVSN[Trp(1-CH2CO)][Phe(4-COOH)]K[Trp(5-OH)][Aib]VCK([Glu-Butanoyl(4-(4-I-phenyl))])-NH2
modifications: thioether N-13; lactam 2-7; not fully specified (residue 2)
B4: GhR_PD_254 (peptide)
peptide: {CH2CO}-[Phe(4-COOH)]KVVSN[Trp(1-CH2CO)][Phe(4-COOH)]K[Trp(5-OH)][Aib]VCK([Glu-Glu-Hexanoyl(6-Ph)])-NH2
modifications: thioether N-13; lactam 2-7; not fully specified (residue 2)
B5: GhR_PD_224 (peptide)
peptide: {CH2CO}-[Phe(4-COOH)]KVVSN[Trp(5-OMe)][Phe(4-COOH)]K[Trp(5-OH)][A4pipaa]VC-NH2
modifications: thioether N-13; not fully specified (residue 2); also: albumin binder E-4IPhpCO, attachment site not given here
B6: GhR_PD_255 (peptide)
peptide: {CH2CO}-[Phe(4-COOH)][NMeK]([Glu-BiPh4pCO])VVSN[Trp(5-OMe)][Phe(4-COOH)]K[Trp(5-OH)][4‑amino‑1‑(carboxymethyl)piperidine‑4‑carboxylic acid]VC-NH2
modifications: thioether N-13
B7: GhR_PD_272 (peptide)
peptide: {CH2CO}-[Phe(4-COOH)]KVVSN[Trp(1-CH2CO)][Phe(4-COOH)]K[Trp(5-OH)][Aib]VCK([AEEA-AEEA-Glu-Glu-C15 diacid])-NH2
modifications: thioether N-13; lactam 2-7; not fully specified (residue 2)
B8: GhR_PD_270 (peptide)
peptide: {CH2CO}-[Phe(4-COOH)]KVVSN[Trp(1-CH2CO)][Phe(4-COOH)]K[Trp(5-OH)][Aib]VCK([Glu-Glu-C17 diacid])-NH2
modifications: thioether N-13; lactam 2-7; not fully specified (residue 2)
B9: GhR_PD_206 (peptide)
peptide: {CH2CO}-YKVVSN[Trp(5-OMe)]YK(X1)[Trp(5-OH)][Aib]VC-NH2
modifications: thioether N-13; not fully specified (residue 2); also: albumin binder E-4IPhpCO, attachment site not given here
B10: GhR_PD_248 (peptide)
peptide: {CH2CO}-[Phe(4-COOH)]KVVSN[Trp(1-CH2CO)][Phe(4-COOH)]K[Trp(5-OH)][Aib]VCGP[dS][dS][dS]K([Glu-Glu-Butanoyl(4-(4-I-phenyl))])-NH2
modifications: thioether N-13; lactam 2-7; not fully specified (residue 2)
B11: GhR_PD_217 (peptide)
peptide: {CH2CO}-[Phe(4-COOH)]KVVSN[Trp(1-CH2CO)][Phe(4-COOH)]K[Trp(5-OH)][Aib]VCK([Glu-Glu-Butanoyl(4-(4-I-phenyl))])-NH2
modifications: thioether N-13; lactam 2-7; not fully specified (residue 2)
B12: GhR_PD_256 (peptide)
peptide: {CH2CO}-[Phe(4-COOH)][NMeK]([Glu-Hexanoyl(6-Ph)])VVSN[Trp(5-OMe)][Phe(4-COOH)]K[Trp(5-OH)][4‑amino‑1‑(carboxymethyl)piperidine‑4‑carboxylic acid]VC-NH2
modifications: thioether N-13
B13: GhR_PD_271 (peptide)
peptide: {CH2CO}-[Phe(4-COOH)]KVVSN[Trp(1-CH2CO)][Phe(4-COOH)]K[Trp(5-OH)][Aib]VCK([AEEA-AEEA-Glu-Glu-C14 diacid])-NH2
modifications: thioether N-13; lactam 2-7; not fully specified (residue 2)
B14: GhR_PD_233 (peptide)
peptide: {CH2CO}-[F4COO][MeK]VVSN[W1aa][F4COO]K[W5H][Aib]VCK
modifications: thioether N-13; lactam 2-7; reading uncertain; also: albumin binder E-E-cC14COO on the side-chain amino group of the linker lysine, which lysine is not given here
B15: GhR_PD_274 (peptide)
peptide: {CH2CO}-[Phe(4-COOH)]KVVSN[Trp(1-CH2CO)][Phe(4-COOH)]K[Trp(5-OH)][Aib]VCK([AEEA-AEEA-Glu-Glu-C17 diacid])-NH2
modifications: thioether N-13; lactam 2-7; not fully specified (residue 2)
B16: GhR_PD_211 (peptide)
peptide: {CH2CO}-YKVVSN[Trp(5-OMe)][Phe(4-COOH)]K[Trp(5-OH)][Aib]VC-NH2
modifications: thioether N-13; not fully specified (residue 2); also: albumin binder E-E-4IPhpCO, attachment site not given here
B17: GhR_PD_267 (peptide)
peptide: {CH2CO}-[Phe(4-COOH)]KVVSN[Trp(1-CH2CO)][Phe(4-COOH)]K[Trp(5-OH)][Aib]VCK([Glu-Glu-Ac])-NH2
modifications: thioether N-13; lactam 2-7; not fully specified (residue 2)
B18: GhR_PD_227 (peptide)
peptide: {CH2CO}-Y[MeK]([Glu-Glu-Butanoyl(4-(4-I-phenyl))])VVSN[Trp(5-OMe)][Phe(4-COOH)]K(X1)[Trp(5-OH)][Aib]VC-NH2
modifications: thioether N-13
B19: GhR_PD_204 (peptide)
peptide: {CH2CO}-[4Pal]KVVSN[Trp(7-aza)][Phe(4-COOH)]K[Trp(5-OH)][Aib]VC-NH2
modifications: thioether N-13; not fully specified (residue 2); also: albumin binder E-4IPhpCO, attachment site not given here
B20: GhR_PD_202 (peptide)
peptide: {CH2CO}-[4Pal]KVVSN[Trp(5-OMe)][Phe(4-COOH)]K[Trp(5-OH)][Aib]VC-NH2
modifications: thioether N-13; not fully specified (residue 2); also: albumin binder E-4IPhpCO, attachment site not given here
B21: GhR_PD_273 (peptide)
peptide: {CH2CO}-[Phe(4-COOH)]KVVSN[Trp(1-CH2CO)][Phe(4-COOH)]K[Trp(5-OH)][Aib]VCK([AEEA-AEEA-Glu-Glu-C16 diacid])-NH2
modifications: thioether N-13; lactam 2-7; not fully specified (residue 2)
B22: GhR_PD_253 (peptide)
peptide: {CH2CO}-[Phe(4-COOH)]KVVSN[Trp(1-CH2CO)][Phe(4-COOH)]K[Trp(5-OH)][Aib]VCK([Glu-Glu-Biph4pCO])-NH2
modifications: thioether N-13; lactam 2-7; not fully specified (residue 2)
B23: GhR_PD_228 (peptide)
peptide: {CH2CO}-Y[MeK]([Glu-Glu-Butanoyl(4-(4-I-phenyl))])VVSN[Trp(5-OMe)][Phe(4-COOH)]K[Trp(5-OH)][A4pipaa]VC-NH2
modifications: thioether N-13
B24: GhR_PD_208 (peptide)
peptide: {CH2CO}-[Phe(4-COOH)]KVVSN[Trp(5-OMe)][Phe(4-COOH)]K[Trp(5-OH)][Aib]VC-NH2
modifications: thioether N-13; not fully specified (residue 2); also: albumin binder E-4IPhpCO, attachment site not given here
B25: GhR_PD_212 (peptide)
peptide: {CH2CO}-[Phe(4-COOH)]KVVSN[Trp(5-OMe)][Phe(4-COOH)]K[Trp(5-OH)][Aib]VC-NH2
modifications: thioether N-13; not fully specified (residue 2); also: albumin binder E-E-4IPhpCO, attachment site not given here
B26: GhR_PD_245 (peptide)
peptide: {CH2CO}-[Phe(4-COOH)]KVVSN[Trp(1-CH2CO)][Phe(4-COOH)]K[Trp(5-OH)][Aib]VCK([Glu-Glu-Butanoyl(4-(4-MePh))])-NH2
modifications: thioether N-13; lactam 2-7; not fully specified (residue 2)
B27: GhR_PD_223 (peptide)
peptide: {CH2CO}-[Phe(4-COOH)]KVVSN[Trp(5-OMe)][Phe(4-COOH)]K(X1)[Trp(5-OH)][Aib]VC-NH2
modifications: thioether N-13; not fully specified (residue 2); also: albumin binder E-4IPhpCO, attachment site not given here
B28: GhR_PD_218 (peptide)
peptide: {CH2CO}-[Phe(4-COOH)]KVVSN[Trp(1-CH2CO)][Phe(4-COOH)]K[Trp(5-OH)][Aib]VCK([Glu-Glu-Butanoyl(4-Ph)])-NH2
modifications: thioether N-13; lactam 2-7; not fully specified (residue 2)

Target: Recombinant human GhR-Fc protein (R&D Systems) (human) (UniProt P10912)
Sequence (P10912 19-264 limits assumed): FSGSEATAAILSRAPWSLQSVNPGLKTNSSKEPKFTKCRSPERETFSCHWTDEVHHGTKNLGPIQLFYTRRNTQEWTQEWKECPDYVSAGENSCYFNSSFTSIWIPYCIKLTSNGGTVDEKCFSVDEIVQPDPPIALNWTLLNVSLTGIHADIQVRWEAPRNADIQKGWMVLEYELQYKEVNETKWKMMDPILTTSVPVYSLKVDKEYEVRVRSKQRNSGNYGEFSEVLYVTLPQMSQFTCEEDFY
Experiment: SPR, Biacore T200, single-cycle kinetics, GhR-Fc immobilised on CM5

Kd [nM]	Binder
3.95	B1
3.1	B2
1.36	B3
1.93	B4
10.8	B5
5.81	B6
3.7	B7
2.53	B8
9.67	B9
1.88	B10
1.46	B11
2.82	B12
3.88	B13
2.85	B14
3.33	B15
3.36	B16
3.51	B17
7.38	B18
9.43	B19
2.77	B20
3.61	B21
1.61	B22
4.13	B23
2.19	B24
2.96	B25
1.95	B26
5.47	B27
2.03	B28
